As usually defined, the Kd is a measure of binding affinity in units of concentration. Read a high Kd as a looser complex.

These results are taken from PMC10786891, “Massively parallel profiling of RNA-targeting CRISPR-Cas13d”.

T1: EsCas13d, nuclease-dead (Eubacterium siraeum, UniProt B0MS50, R295A;H300A;R849A;H854A)
T1 sequence: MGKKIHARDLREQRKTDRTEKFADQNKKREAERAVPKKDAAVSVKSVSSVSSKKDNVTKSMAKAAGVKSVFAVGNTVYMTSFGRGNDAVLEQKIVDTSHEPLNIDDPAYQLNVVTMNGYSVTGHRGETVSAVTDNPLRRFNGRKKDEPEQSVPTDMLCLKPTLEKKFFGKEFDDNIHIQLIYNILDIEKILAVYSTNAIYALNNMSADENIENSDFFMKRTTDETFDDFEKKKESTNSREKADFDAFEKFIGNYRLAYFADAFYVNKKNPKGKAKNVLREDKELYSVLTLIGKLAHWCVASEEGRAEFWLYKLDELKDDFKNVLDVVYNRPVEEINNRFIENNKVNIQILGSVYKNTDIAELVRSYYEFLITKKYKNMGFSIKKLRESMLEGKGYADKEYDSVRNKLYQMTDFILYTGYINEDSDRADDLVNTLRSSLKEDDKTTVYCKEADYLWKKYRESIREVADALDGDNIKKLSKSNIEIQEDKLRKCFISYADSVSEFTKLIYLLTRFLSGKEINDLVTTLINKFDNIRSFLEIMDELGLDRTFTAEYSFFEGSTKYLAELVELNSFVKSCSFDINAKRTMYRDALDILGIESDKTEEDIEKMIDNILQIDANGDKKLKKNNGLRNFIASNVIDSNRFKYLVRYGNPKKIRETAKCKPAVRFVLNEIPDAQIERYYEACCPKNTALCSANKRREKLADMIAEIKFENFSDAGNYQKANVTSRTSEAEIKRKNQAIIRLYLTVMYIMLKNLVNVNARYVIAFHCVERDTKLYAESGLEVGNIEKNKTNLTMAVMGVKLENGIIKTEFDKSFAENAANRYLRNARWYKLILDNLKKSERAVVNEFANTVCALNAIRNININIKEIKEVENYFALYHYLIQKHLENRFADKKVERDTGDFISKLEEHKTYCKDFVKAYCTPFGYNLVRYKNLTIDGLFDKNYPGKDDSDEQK

B1: target 1 insG 3' of 19,insU 3' of 4 (mixed)
RNA 1: CACCCGUGCAAAAAUGCAGGGGUCUAAAACUGAGCGGAUAACCUCUCUAUGG
RNA 2: GGGAAUGGAUCCACAUCUACGAAUUCGUACCAUGAGAGAGGUUAUCCGCUUCACCGAGAUCGGAAGAGCACACGU
B2: target 1 insC 3' of 13,insU 3' of 1 (mixed)
RNA 1: CACCCGUGCAAAAAUGCAGGGGUCUAAAACUGAGCGGAUAACCUCUCUAUGG
RNA 2: GGGAAUGGAUCCACAUCUACGAAUUCGUACCAUAGAGAGCGUUAUCCGCUCAUCCGAGAUCGGAAGAGCACACGU
B3: target 1 insG 3' of 4,insG 3' of 4 (mixed)
RNA 1: CACCCGUGCAAAAAUGCAGGGGUCUAAAACUGAGCGGAUAACCUCUCUAUGG
RNA 2: GGGAAUGGAUCCACAUCUACGAAUUCGUACCAUAGAGAGGUUAUCCGCGGUCACCGAGAUCGGAAGAGCACACGU
B4: target 1 U19A,A20U (mixed)
RNA 1: CACCCGUGCAAAAAUGCAGGGGUCUAAAACUGAGCGGAUAACCUCUCUAUGG
RNA 2: GGGAAUGGAUCCACAUCUACGAAUUCGUACCUAAGAGAGGUUAUCCGCUCACCGAGAUCGGAAGAGCACACGU
B5: target 1 insA 3' of 5 (mixed)
RNA 1: CACCCGUGCAAAAAUGCAGGGGUCUAAAACUGAGCGGAUAACCUCUCUAUGG
RNA 2: GGGAAUGGAUCCACAUCUACGAAUUCGUACCAUAGAGAGGUUAUCCGACUCACCGAGAUCGGAAGAGCACACGU
B6: target 1 insG 3' of 10,insU 3' of 6 (mixed)
RNA 1: CACCCGUGCAAAAAUGCAGGGGUCUAAAACUGAGCGGAUAACCUCUCUAUGG
RNA 2: GGGAAUGGAUCCACAUCUACGAAUUCGUACCAUAGAGAGGUUGAUCCUGCUCACCGAGAUCGGAAGAGCACACGU
B7: target 1 insU 3' of 7,insG 3' of 4 (mixed)
RNA 1: CACCCGUGCAAAAAUGCAGGGGUCUAAAACUGAGCGGAUAACCUCUCUAUGG
RNA 2: GGGAAUGGAUCCACAUCUACGAAUUCGUACCAUAGAGAGGUUAUCUCGCGUCACCGAGAUCGGAAGAGCACACGU
B8: target 1 C7G,U10C (mixed)
RNA 1: CACCCGUGCAAAAAUGCAGGGGUCUAAAACUGAGCGGAUAACCUCUCUAUGG
RNA 2: GGGAAUGGAUCCACAUCUACGAAUUCGUACCAUAGAGAGGUCAUGCGCUCACCGAGAUCGGAAGAGCACACGU
B9: target 1 U3C,G5U (mixed)
RNA 1: CACCCGUGCAAAAAUGCAGGGGUCUAAAACUGAGCGGAUAACCUCUCUAUGG
RNA 2: GGGAAUGGAUCCACAUCUACGAAUUCGUACCAUAGAGAGGUUAUCCUCCCACCGAGAUCGGAAGAGCACACGU
B10: target 1 del13,del17 (mixed)
RNA 1: CACCCGUGCAAAAAUGCAGGGGUCUAAAACUGAGCGGAUAACCUCUCUAUGG
RNA 2: GGGAAUGGAUCCACAUCUACGAAUUCGUACCAUAAGAGUUAUCCGCUCACCGAGAUCGGAAGAGCACACGU
B11: target 1 insU 3' of 21,insC 3' of 20 (mixed)
RNA 1: CACCCGUGCAAAAAUGCAGGGGUCUAAAACUGAGCGGAUAACCUCUCUAUGG
RNA 2: GGGAAUGGAUCCACAUCUACGAAUUCGUACCUACUAGAGAGGUUAUCCGCUCACCGAGAUCGGAAGAGCACACGU
B12: target 1 A9U,G12U (mixed)
RNA 1: CACCCGUGCAAAAAUGCAGGGGUCUAAAACUGAGCGGAUAACCUCUCUAUGG
RNA 2: GGGAAUGGAUCCACAUCUACGAAUUCGUACCAUAGAGAGUUUUUCCGCUCACCGAGAUCGGAAGAGCACACGU
B13: target 1 A1U,U8C (mixed)
RNA 1: CACCCGUGCAAAAAUGCAGGGGUCUAAAACUGAGCGGAUAACCUCUCUAUGG
RNA 2: GGGAAUGGAUCCACAUCUACGAAUUCGUACCAUAGAGAGGUUACCCGCUCUCCGAGAUCGGAAGAGCACACGU
B14: target 1 A1U,G15U (mixed)
RNA 1: CACCCGUGCAAAAAUGCAGGGGUCUAAAACUGAGCGGAUAACCUCUCUAUGG
RNA 2: GGGAAUGGAUCCACAUCUACGAAUUCGUACCAUAGAUAGGUUAUCCGCUCUCCGAGAUCGGAAGAGCACACGU
B15: target 1 U11A,C21U (mixed)
RNA 1: CACCCGUGCAAAAAUGCAGGGGUCUAAAACUGAGCGGAUAACCUCUCUAUGG
RNA 2: GGGAAUGGAUCCACAUCUACGAAUUCGUACUAUAGAGAGGAUAUCCGCUCACCGAGAUCGGAAGAGCACACGU
B16: target 1 G5C,U19G (mixed)
RNA 1: CACCCGUGCAAAAAUGCAGGGGUCUAAAACUGAGCGGAUAACCUCUCUAUGG
RNA 2: GGGAAUGGAUCCACAUCUACGAAUUCGUACCAGAGAGAGGUUAUCCCCUCACCGAGAUCGGAAGAGCACACGU
B17: target 1 insG 3' of 19,insA 3' of 10 (mixed)
RNA 1: CACCCGUGCAAAAAUGCAGGGGUCUAAAACUGAGCGGAUAACCUCUCUAUGG
RNA 2: GGGAAUGGAUCCACAUCUACGAAUUCGUACCAUGAGAGAGGUUAAUCCGCUCACCGAGAUCGGAAGAGCACACGU
B18: target 1 C6G,U11G (mixed)
RNA 1: CACCCGUGCAAAAAUGCAGGGGUCUAAAACUGAGCGGAUAACCUCUCUAUGG
RNA 2: GGGAAUGGAUCCACAUCUACGAAUUCGUACCAUAGAGAGGGUAUCGGCUCACCGAGAUCGGAAGAGCACACGU
B19: target 1 del9,del14 (mixed)
RNA 1: CACCCGUGCAAAAAUGCAGGGGUCUAAAACUGAGCGGAUAACCUCUCUAUGG
RNA 2: GGGAAUGGAUCCACAUCUACGAAUUCGUACCAUAGAGGGUUUCCGCUCACCGAGAUCGGAAGAGCACACGU
B20: target 1 insU 3' of 12,insA 3' of 12 (mixed)
RNA 1: CACCCGUGCAAAAAUGCAGGGGUCUAAAACUGAGCGGAUAACCUCUCUAUGG
RNA 2: GGGAAUGGAUCCACAUCUACGAAUUCGUACCAUAGAGAGGUAUUAUCCGCUCACCGAGAUCGGAAGAGCACACGU
B21: target 1 U8C,G12U (mixed)
RNA 1: CACCCGUGCAAAAAUGCAGGGGUCUAAAACUGAGCGGAUAACCUCUCUAUGG
RNA 2: GGGAAUGGAUCCACAUCUACGAAUUCGUACCAUAGAGAGUUUACCCGCUCACCGAGAUCGGAAGAGCACACGU
B22: target 1 A1U,U11A (mixed)
RNA 1: CACCCGUGCAAAAAUGCAGGGGUCUAAAACUGAGCGGAUAACCUCUCUAUGG
RNA 2: GGGAAUGGAUCCACAUCUACGAAUUCGUACCAUAGAGAGGAUAUCCGCUCUCCGAGAUCGGAAGAGCACACGU
B23: target 1 insA 3' of 21,insG 3' of 2 (mixed)
RNA 1: CACCCGUGCAAAAAUGCAGGGGUCUAAAACUGAGCGGAUAACCUCUCUAUGG
RNA 2: GGGAAUGGAUCCACAUCUACGAAUUCGUACCAAUAGAGAGGUUAUCCGCUCGACCGAGAUCGGAAGAGCACACGU
B24: target 1 C7G,A14G (mixed)
RNA 1: CACCCGUGCAAAAAUGCAGGGGUCUAAAACUGAGCGGAUAACCUCUCUAUGG
RNA 2: GGGAAUGGAUCCACAUCUACGAAUUCGUACCAUAGAGGGGUUAUGCGCUCACCGAGAUCGGAAGAGCACACGU
B25: target 1 insG 3' of 18,insA 3' of 11 (mixed)
RNA 1: CACCCGUGCAAAAAUGCAGGGGUCUAAAACUGAGCGGAUAACCUCUCUAUGG
RNA 2: GGGAAUGGAUCCACAUCUACGAAUUCGUACCAUAGGAGAGGUAUAUCCGCUCACCGAGAUCGGAAGAGCACACGU
B26: target 1 insC 3' of 19,insG 3' of 8 (mixed)
RNA 1: CACCCGUGCAAAAAUGCAGGGGUCUAAAACUGAGCGGAUAACCUCUCUAUGG
RNA 2: GGGAAUGGAUCCACAUCUACGAAUUCGUACCAUCAGAGAGGUUAUGCCGCUCACCGAGAUCGGAAGAGCACACGU
B27: target 1 A20U,C21U (mixed)
RNA 1: CACCCGUGCAAAAAUGCAGGGGUCUAAAACUGAGCGGAUAACCUCUCUAUGG
RNA 2: GGGAAUGGAUCCACAUCUACGAAUUCGUACUUUAGAGAGGUUAUCCGCUCACCGAGAUCGGAAGAGCACACGU

For the data set, the target named is T1, EsCas13d, nuclease-dead. As to the kind of experiment: crRNA (strand 1, pre-loaded); Mg2+; 40 mM Tris-HCl pH 7.5, 150 mM NaCl, 6 mM MgCl2, 1 mM DTT, 0.1% Tween-20, 0.2 mg/ml BSA; 25 C; 10 min per concentration, then washed. The following applies: tags: His6-TwinStrep-SUMO cleaved; N-terminal SNAP kept (SNAP-Surface 488); label: 3' end held by stalled T7 RNA polymerase.
Consider B1, for which the Kd stood at 53 ± 6 nM.
B2 gave a Kd of 11.5 ± 1.1 nM. This Kd lies about 4.6-fold lower than the previous one.
As for B3, the Kd stood at 5.72 ± 0.26 nM. This Kd is about 2-fold lower than that of the molecule before.
With B4 the figure was 47 ± 4 nM; with B5, 6.2 ± 0.4 nM; with B6, 36.8 ± 3.1 nM.
In the case of B7 it was 7.41 ± 0.26 nM; in that of B8, 24.6 ± 2.2 nM; in that of B9, 42 ± 9 nM.
Turning to B10, the Kd came out at 55 ± 20 nM.
Turning to B11, the Kd was determined as 13.5 ± 1 nM.
Molecule B12 had an equilibrium dissociation constant (Kd) of 10.9 ± 1.1 nM.
Molecule B13 yielded a Kd of 11.2 ± 0.5 nM.
With B14 the figure was 25.9 ± 3 nM; with B15, 8.3 ± 0.5 nM.
For the molecule B16, the Kd was determined as 30 ± 4 nM. This Kd lies about 3.6-fold higher than the previous one.
B17 came in with a Kd of 59 ± 5 nM.
With B18 the figure was 9.6 ± 0.5 nM; with B19, 28 ± 1.8 nM.
Consider B20, for which binding was characterised by a dissociation constant (Kd) of 10.1 ± 0.5 nM.
Take B21: the affinity, expressed as Kd, was 10.7 ± 0.6 nM.
With B22 the figure was 37.8 ± 3 nM; with B23, 16 ± 0.9 nM; with B24, 17.7 ± 1.2 nM.
The molecule B25 had a Kd of 89 ± 11 nM.
Consider B26, for which binding was put at a Kd of 45 ± 7 nM.
Take B27: the Kd was found to be 19.5 ± 1.2 nM.
